# Measured values as given in article PMC8915953 (Frontiers in Microbiology, 2022).
# B1: ZMPSTE24-C-SmBiT (natural protein, human, UniProt O75844 1-475, looked up)
# chain: MGMWASLDALWEMPAEKRIFGAVLLFSWTVYLWETFLAQRQRRIYKTTTHVPPELGQIMDSETFEKSRLYQLDKSTFSFWSGLYSETEGTLILLFGGIPYLWRLSGRFCGYAGFGPEYEITQSLVFLLLATLFSALTGLPWSLYNTFVIEEKHGFNQQTLGFFMKDAIKKFVVTQCILLPVSSLLLYIIKIGGDYFFIYAWLFTLVVSLVLVTIYADYIAPLFDKFTPLPEGKLKEEIEVMAKSIDFPLTKVYVVEGSKRSSHSNAYFYGFFKNKRIVLFDTLLEEYSVLNKDIQEDSGMEPRNEEEGNSEEIKAKVKNKKQGCKNEEVLAVLGHELGHWKLGHTVKNIIISQMNSFLCFFLFAVLIGRKELFAAFGFYDSQPTLIGLLIIFQFIFSPYNEVLSFCLTVLSRRFEFQADAFAKKLGKAKDLYSALIKLNKDNLGFPVSDWLFSMWHYSHPPLLERLQALKTMKQH
# notes: also called C-terminal tagged ZMPSTE24; not shown: SmBiT, C-terminal, kept
# Target: T1, IFITM3-C-LgBiT (human, UniProt Q01628 1-133)
# T1 construct: also called C-terminal tagged IFITM3; not shown: LgBiT, C-terminal, kept
# T1 sequence (Q01628 whole entry): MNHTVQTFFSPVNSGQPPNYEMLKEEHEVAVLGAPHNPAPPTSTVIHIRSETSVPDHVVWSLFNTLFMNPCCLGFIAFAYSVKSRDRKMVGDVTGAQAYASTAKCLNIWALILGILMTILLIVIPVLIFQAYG
# Test: split reporter (BiFC, NanoBiT)
# Conditions: partners not purified
binder,measurement,value
B1,luminescence relative to the negative control pairs,~12 fold
